Laboratory results reported in publication PMC11107369, “The Plasmodium vivax MSP1P-19 is involved in binding of reticulocytes through interactions with the membrane proteins band3 and CD71” (The Journal of Biological Chemistry, 2024).

Biological target: T1, Recombinant CD71-ECD immobilised on the CM5 chip (SPR) (human, UniProt P02786 89-760)
T1 construct: Human transferrin receptor protein 1 (CD71), extracellular domain; source: recombinant
Assay: SPR; BIAcore S200; CD71-ECD coupled to CM5 chip (EDC/NHS, 10 mM NaAc pH 4.5); analyte PvMSP1P-19 6.25, 12.5, 25, 50 μM at 30 μl/min; 1:1 Langmuir model; apparent KD
Conditions: both partners purified

T1 sequence (P02786 89-760): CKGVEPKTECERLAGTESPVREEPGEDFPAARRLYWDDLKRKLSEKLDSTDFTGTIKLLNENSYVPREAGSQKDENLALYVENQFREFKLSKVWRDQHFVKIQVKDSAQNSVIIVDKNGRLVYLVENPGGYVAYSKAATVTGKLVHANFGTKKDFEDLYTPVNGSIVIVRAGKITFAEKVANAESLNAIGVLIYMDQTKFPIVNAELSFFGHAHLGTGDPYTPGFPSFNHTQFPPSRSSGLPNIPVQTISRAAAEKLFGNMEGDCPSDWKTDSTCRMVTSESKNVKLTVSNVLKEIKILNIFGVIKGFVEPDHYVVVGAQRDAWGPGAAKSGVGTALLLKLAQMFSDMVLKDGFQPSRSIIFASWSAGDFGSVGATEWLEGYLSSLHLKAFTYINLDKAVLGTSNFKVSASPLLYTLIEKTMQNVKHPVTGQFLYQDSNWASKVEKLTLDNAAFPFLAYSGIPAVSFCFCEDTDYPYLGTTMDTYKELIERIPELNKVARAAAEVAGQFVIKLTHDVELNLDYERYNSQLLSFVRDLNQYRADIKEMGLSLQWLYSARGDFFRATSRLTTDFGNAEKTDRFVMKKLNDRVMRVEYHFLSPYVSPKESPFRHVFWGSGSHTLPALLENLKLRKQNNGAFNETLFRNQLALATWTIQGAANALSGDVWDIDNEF

B1: Plasmodium vivax merozoite surface protein 1 paralog, 19-kDa C-terminal region (PvMSP1P-19), Trx-His-Flag-tagged (domain or fragment)
chain: DRVEKNCRNRKCPLNSFCFIQTINEECLCLLNYSMVGEKCILNEQNSCAVKNGGCDLKATCELKKNRVNCICPKGTKPMHEGVVCS
notes: P. vivax merozoite surface protein 1 paralog (PvMSP1P, 1854 aa), PlasmoDB PVX_099975, aa 1749-1834 (two EGF-like domains); Migrates at ~36 kDa; also called Trx-His-PvMSP1P-19; His-MSP1P-19; source: E. coli BL21 (DE3) and SHuffle T7 E. coli, pET32a, soluble, purified by Talen Biotech
  Kd: 35.5 µM
